The values that follow come from article PMC11324738.

The target of experiment [1] is endogenous LC3 (human cells), Q9GZQ8. Nature of the experiment: Proximity Ligation Assay. The conditions noted are these: chain shown with the change; HeLa cells transfected with GPR50-FLAG constructs; antibodies against LC3 and FLAG; n = 178–208 cells per group from 3 independent experiments; parent: est. 25; read off a plot.
The target of experiment [2] is GFP-LC3, Q9GZQ8. Nature of the experiment: Co-immunoprecipitation. The conditions noted are these: chain shown with the change; HEK293T cells co-transfected with GFP-LC3 and GPR50-FLAG constructs; IP anti-FLAG; n = 4 independent experiments; parent: est. 1.0; read off a plot.
In experiment [3] the target is recombinant LC3 protein, Q9GZQ8. Nature of the experiment: ELISA. The conditions noted are these: chain shown with the change, recombinant LC3 coated on the plate, biotin-labeled synthetic peptide, read off a plot. A general note: An ELISA detects its analyte on a solid surface through an enzyme-linked reagent.

B1: GPR50-FLAG WT, Q13585 Y305A; W306A; T307A; I308A (protein)
chain: MGPTLAVPTPYGCIGCKLPQPEYPPALIIFMFCAMVITIVVDLIGNSMVILAVTKNKKLRNSGNIFVVSLSVADMLVAIYPYPLMLHAMSIGGWDLSQLQCQMVGFITGLSVVGSIFNIVAIAINRYCYICHSLQYERIFSVRNTCIYLVITWIMTVLAVLPNMYIGTIEYDPRTYTCIFNYLNNPVFTVTIVCIHFVLPLLIVGFCYVRIWTKVLAARDPAGQNPDNQLAEVRNFLTMFVIFLLFAVCWCPINVLTVLVAVSPKEMAGKIPNWLYLAAYFIAYFNSCLNAVIYGLLNENFRREAAAAFHAMRHPIIFFSGLISDIREMQEARTLARARAHARDQAREQDRAHACPAVEETPMNVRNVPLPGDAAAGHPDRASGHPKPHSRSSSAYRKSASTHHKSVFSHSKAASGHLKPVSGHSKPASGHPKSATVYPKPASVHFKADSVHFKGDSVHFKPDSVHFKPASSNPKPITGHHVSAGSHSKSAFSAATSHPKPTTGHIKPATSHAEPTTADYPKPATTSHPKPTAADNPELSASHCPEIPAIAHPVSDDSDLPESASSPAAGPTKPAASQLESDTIADLPDPTVVTTSTNDYHDVVVIDVEDDPDEMAV
In the case of B1, the response (DUO (+) spots/cell) in experiment [1] is 5.5. Besides, in experiment [2], the ratio to parent is 0.65.
As for NAVIYGLLNENFRREAAAAFHAM [biotin-labeled synthetic GPR50 LIR peptide, a.a. 290-312 (WT), Q13585 Y305A; W306A; T307A; I308A], the response in experiment [3] (peptide 1 µM, parent: est. 0.47) is 0.38 OD (562 nm); in experiment [3] (peptide 2.5 µM, parent: est. 1.2), 0.35 OD (562 nm); in experiment [3] (peptide 5 µM, parent: est. 3.2) it was 0.38 OD (562 nm); in experiment [3] (peptide 10 µM, parent: est. 3.7), 0.4 OD (562 nm); in experiment [3] (peptide 20 µM, parent: est. 3.7), 0.4 OD (562 nm); in experiment [3] (peptide 40 µM, parent: est. 3.7), 0.5 OD (562 nm).
